Like-named read-outs stand apart in the source and are kept apart here.
Experiments:
PD-L1 (human) [1] = target: PD-L1 (human) (UniProt Q9NZQ7)
CD28 (human) [2] = target: CD28 (human) (UniProt P10747)
PD-L1 (human) [3] = target: PD-L1 (human) (UniProt Q9NZQ7); remark: listed apart in the source
CD28 (human) [4] = target: CD28 (human) (UniProt P10747); remark: listed apart in the source

Chain of PD-L1 (human) (Q9NZQ7 19-290): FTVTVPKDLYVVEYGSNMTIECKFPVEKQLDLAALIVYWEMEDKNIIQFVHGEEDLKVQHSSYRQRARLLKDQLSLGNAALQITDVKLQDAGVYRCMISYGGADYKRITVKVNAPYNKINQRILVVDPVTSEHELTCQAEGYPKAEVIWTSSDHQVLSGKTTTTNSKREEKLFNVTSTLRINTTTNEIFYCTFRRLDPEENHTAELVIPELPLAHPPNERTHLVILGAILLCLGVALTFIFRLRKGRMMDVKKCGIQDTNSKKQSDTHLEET

Row | Substance | Jurkat/IL2 reporter RLU at 50 nM, K562/OKT3/PD-L1 aAPC (PD-L1 (human) [1]) [RLU] | Jurkat/IL2 reporter RLU at 50 nM, K562/OKT3/PD-L1 aAPC (CD28 (human) [2]) [RLU] | Jurkat/IL2 reporter RLU at 50 nM, K562/OKT3/PD-L1 aAPC (PD-L1 (human) [3]) [RLU] | Jurkat/IL2 reporter RLU at 50 nM, K562/OKT3/PD-L1 aAPC (CD28 (human) [4]) [RLU]
1 | CD80 E35D/D46V/M47L/V68M/L85Q/E88D IgV-Fc (inert) (Fc fusion) | 1460 | 1460 |  | 
2 | CD80 Q33L/E35D/M43V/M47I/A71G IgV-Fc (inert) (Fc fusion) |  |  | 473 | 473
3 | CD80 E35D/A71D/L72V/R73H/E81K IgV-Fc (inert) (Fc fusion) | 282 | 282 |  | 
4 | CD80 Q33K/E35D/D46V/L85Q IgV-Fc (inert) (Fc fusion) |  |  | 504 | 504
5 | CD80 Q27H/E35D/M47I/L85Q/D90G IgV-Fc (inert) (Fc fusion) | 1310 | 1310 |  | 
6 | CD80 E35D/T41S/M47V/A71G/K89N IgV-Fc (inert) (Fc fusion) | 1020 | 1020 |  | 
7 | CD80 A26E/Q33L/E35D/M47L IgV-Fc (inert) (Fc fusion) |  |  | 476 | 476
8 | CD80 V22A/R29H/E35D/D46E/M47I IgV-Fc (inert) (Fc fusion) |  |  | 3310 | 3310
9 | CD80 E35D/M47V/N48T/L85Q IgV-Fc (inert) (Fc fusion) | 897 | 897 |  | 
10 | CD80 E24D/Q33L/E35D/M47V/K54R/L85Q IgV-Fc (inert) (Fc fusion) |  |  | 3240 | 3240
11 | CD80 Q33L/E35D/N48K/L85Q/L97Q IgV-Fc (inert) (Fc fusion) |  |  | 358 | 358
12 | CD80 H18Y/E35D/V68M/L97Q IgV-Fc (inert) (Fc fusion) |  |  | 4340 | 4340
13 | CD80 H18Y/V20A/Q33L/E35D/M47V/Y53F IgV-Fc (inert) (Fc fusion) |  |  | 566 | 566
14 | CD80 Q33L/E35D/M47I/T62N/L85Q IgV-Fc (inert) (Fc fusion) |  |  | 463 | 463
15 | CD80 Q33L/E35D/M47I IgV-Fc (inert) (Fc fusion) |  |  | 423 | 423
16 | CD80 Q33L/E35D/M43I/L85Q/R94W IgV-Fc (inert) (Fc fusion) |  |  | 553 | 553
17 | CD80 H18Y/E35D/M47L IgV-Fc (inert) (Fc fusion) |  |  | 2980 | 2980
18 | CD80 A26E/Q33R/E35D/M47L/L85Q IgV-Fc (inert) (Fc fusion) |  |  | 500 | 500
19 | CD80 H18Y/A26E/Q33L/E35D/M47L/L85Q IgV-Fc (inert) (Fc fusion) |  |  | 408 | 408
20 | CD80 S15P/Q33L/E35D/M47L/L85Q IgV-Fc (inert) (Fc fusion) |  |  | 468 | 468
21 | CD80 Q33R/E35D/D46E/M47I IgV-Fc (inert) (Fc fusion) |  |  | 522 | 522
22 | CD80 E35D/D46E/M47V/L97Q IgV-Fc (inert) (Fc fusion) |  |  | 1090 | 1090
23 | CD80 A26E/Q33L/E35D/M47L/L85Q IgV-Fc (inert) (Fc fusion) |  |  | 416 | 416
24 | CD80 E35D/M47I/E77A/L85Q/R94W IgV-Fc (inert) (Fc fusion) |  |  | 473 | 473
25 | CD80 H18Y/Q33L/E35D/M47I IgV-Fc (inert) (Fc fusion) |  |  | 486 | 486
26 | CD80 E35D/M47V/A71G/L85M/L97Q IgV-Fc (inert) (Fc fusion) |  |  | 576 | 576
27 | CD80 V22A/E35D/V68E/A71D IgV-Fc (inert) (Fc fusion) |  |  | 538 | 538
28 | CD80 E35D/M47L/A71G/L97Q IgV-Fc (inert) (Fc fusion) |  |  | 2160 | 2160
29 | CD80 Q33L/E35D/T41S/M47V IgV-Fc (inert) (Fc fusion) |  |  | 481 | 481
30 | CD80 Q33L/E35D/M47L/V68M/L85Q/E88D IgV-Fc (inert) (Fc fusion) |  |  | 572 | 572

From US20220177587A1, “METHODS AND USES OF VARIANT CD80 FUSION PROTEINS AND RELATED CONSTRUCTS” (Alpine Immune Sciences, Inc., priority 2018, published 2022)
